# Data from the DeepSol protein solubility set.
# Experiment: soluble on expression in E. coli; label from the status in PepcDB or PDB records
row,Sequence,soluble on expression in E. coli
1,MISPELVKEALKKKKVRSEEAFGLEYLRFNDDYKDIPRGTAIFKDFIIWGYPHIGRIFLLETGLREQFEAPFWVEEKVDGYNTRIFKYGDNYYALSRGGFICPFTTDRLPDLIDLRILDENPDLVICAEVAGPENPYIEESPPYVKEDVQLFVFDFMKKNEQGFLSQEEKMELIEKYNLPHVEILGRFTASEEGIKKIKEILKRFNEEGREGVVFKEDSERNKRAKYITSYANLMDIKTNAKNMLQLPPEYYTNRILRLVLFMYEEGLKTTEHLYEELGRAFIDGLFQAIEQFEKEHKVYKTFTCKFRKKENAIALLELLSKTSKHIQVKERRLEKEGDYWRLEFDKVFLNMTGLLGHLLSGGIVYD,soluble
2,MSLRKASVFIVELKFEQESCPLGVVIPLEESKNKLASVKPLVDLTRADMEQVNQLILSRAGSDVQMIPEVANHLISSGGKRLRPMLTLASASMFGYEGDHHIKLATSVEFMHTATLLHDDVVDESDLRRGKSTARTIWGNQASVLVGDFLLGQAFRMMVDVGSLDALDVLSTAASVIAEGEVLQLSVAKNMETTEDDYLQVIRAKTAALFAAAAEVGPIVAKTDKASRSALKSYGMNLGLAFQLVDDVLDYGGKSADLGKNTGDDFREGKITLPVILSYRRGTQDERAFWRNAIENGESSDENLEKALGLITKYNGLGDTIGRATHYGTIARDALAPLPESPWKNALLEVIDFCIERLNEGHHHHHH,soluble
3,MNASDFRRRGKEMVDYMADYLEGIEGRQVYPDVQPGYLRPLIPATAPQEPDTFEDILQDVEKIIMPGVTHWHSPYFFAYFPTASSYPAMLADMLCGAIGCIGFSWAASPACTELETVMMDWLGKMLQLPEAFLAGEAGEGGGVIQGSASEATLVALLAARTKVVRRLQAASPGLTQGAVLEKLVAYASDQAHSSVERAGLIGGVKLKAIPSDGKFAMRASALQEALERDKAAGLIPFFVVATLGTTSCCSFDNLLEVGPICHEEDIWLHVDAAYAGSAFICPEFRHLLNGVEFADSFNFNPHKWLLVNFDCSAMWVKRRTDLTGAFKLDPVYLKHSHQGSGLITDYRHWQLPLGRRFRSLKMWFVFRMYGVKGLQAYIRKHVQLSHEFEAFVLQDPRFEVCAEVTLGLVCFRLKGSDGLNEALLERINSARKIHLVPCRLRGQFVLRFAICSRKVESGHVRLAWEHIRGLAAELLAAEEGKAEIKS,soluble
4,MAKLRVGIVFGGKSAEHEVSLQSAKNIVDAIDKTRFDVVLLGIDKAGQWHVNDAENYLQNADDPAHIALRPSAISLAQVPGKHQHQLINAQNGQPLPTVDVIFPIVHGTLGEDGSLQGMLRVANLPFVGSDVLSSAACMDKDVAKRLLRDAGLNIAPFITLTRTNRHAFSFAEVESRLGLPLFVKPANQGSSVGVSKVANEAQYQQAVALAFEFDHKVVVEQGIKGREIECAVLGNDNPQASTCGEIVLNSEFYAYDTKYIDDNGAQVVVPAQIPSEVNDKIRAIAIQAYQTLGCAGMARVDVFLTADNEVVINEINTLPGFTNISMYPKLWQASGLGYTDLISRLIELALERHTANNALKTTM,soluble
5,MNAKEILVHSLRLLENGDARGWCDLFHPEGVLEFPYAPPGWKTRFEGRETIWAHMRLFPEHLTVRFTDVQFYETADPDLAIGEFHGDGVATVSGGKLAQDYISVLRTRDGQILLYRDFWNPLRHLEALGGVEAAAKIVQGA,soluble
6,SAGAAPTTAFGQAVIGPPGSGKTTYCLGMSEFLRALGRRVAVVNLDPANEGLPYECAVDVGELVGLGDVMDALRLGPNGGLLYCMEYLEANLDWLRAKLDPLRGHYFLFDCPGQVELCTHHGALRSIFSQMAQWDLRLTAVHLVDSHYCTDPAKFISVLCTSLATMLHVELPHINLLSKMDLIEHYGKLAFNLDYYTEVLDLSYLLDHLASDPFFRHYRQLNEKLVRLIEDYSLVSFIPLNIQDKESIQRVLQAVDKANGYCFGAQEQRSLEAMMSAAMGADFHFSSTLGIQEKYLAPSNQSVEQEAMQL,not soluble
7,MSLKITGNTILITGGGSGIGRALAEAFHQAGNRVIISGRRQAVLDEVTAANPGMASMVMDAGDAEGIRAFAEALVKAHPTLNAVINNAGIMRPEEIAAAPDYLDTAEETIATNLLAPIRLTAALLPHFLKQPAATVLTVSSGLAFVPMVLTPTYSATKSAIHAYSVALREQLKETSVEVIEIVPPYVQTTLMGEGQANDERAMPLEAFISEVMDILKNRPDEKEVVVERCKPLRFAAQNGNFDQVFAMINHMHEGHHHHHH,soluble
8,MATEAVYGSWDSPITPDLFGKCNCKSICEMQVVGGNVYWIEQNSVTGKRELYSKPTNGDTRTRWADGQSVQTAIHEYGGGALHVLADGSVLFATIEGVFYQKSADSGVEQLAEGNNRMFRFSDFSATDTHVFCVNETHQADAKFPENRLISIDRATKNQNVIAHGADFYAYPRVSPDGKKLVWMQWSLPNMPWDETSIRMADLKGGESSNEVTLKDGTGKQINYSEPTWDGDELLTVNDSTNWWNVYKSAAEPNSVEKNLNPIQREISYPLWQLGFRNYVLNKKYLVMNADGILYVRSGDVTVEIPTPGYTVFGYLSLDQNGSDLFAIASGPKRASSVISIDLANKNFPLKVHRESRDSSEIDALEISEPEEFVFKSDGVDVSAGTLPPVLLLGHGGPTAPAQNNLDLKKQFFTSRGIAVFDVNYRGSTGFGTEFRRMLYKNCGVADRDDMLNGAKALVEQGKVDAEKVLITGSSSGGYLILSCLISPKNIIKAAVSVYGVADLLALDEDTHKLERCYNEMLIGKYPEQASIYEERSPIYHIDKIRTPIAFLHGREDTVVPMSQSITMYEKIRASGVTTALMLFDGEGHGFRNGQVIKESTEATFYFLMKAVGIEPSISSKIEIVNPKH,not soluble
9,MATPSTGANNSIPAVRNQVEVQVGLVGDAQVGKTSLMVKYVQNIYDKEYTQTLGVNFLKRKVSIRSTDIIFSIMDLGGQREFINMLPIATVGSSVIIFLFDLTRPETLSSIKEWYRQAYGLNDSAIPILVGTKYDLLIDLDPEYQEQISRTSMKYAQVMNAPLIFCSTAKSINIQKIFKIALAKIFNLTLTIPEINEIGDPLLIYKHLGGQQHRHHNKSQDRKSHNIRKPSSSPSSKAPSPGVNT,soluble
10,MSLTTELVDWTHEQKCRKAVASLEKNGFTAVYCGTGQEALEYIVAEAAEAESVGFGGSMSVDDLKVIERIREMGKELLIHGAPGLSLEERVTIMRRQLTCDLFLAGTNALTLSGWLVNIDATGNRVGSMFFGPRKVIVVAGRNKIVDGGVQEAIDRIKEWASPPNARRLNYKTPCGTTGFCSDCNSPDRICRITTVIDRKPRLTDLRVLVVNEEMGFLEHHHHHH,soluble
11,MAHHHHHHMNVVDFTWSRIRLFDHLAVILIYEELLKNPLCKITNVYESETRKYKPYPLNTLQMTKLVSIYFKISSKECMMLAEKLYNKGYISYPRTETNYFPDSMNLHKIINELRKNDNFGWYANKLCEEHKYQKPRKGKMNDKAHPPIHPVKNMNKSLKVEEKEWKLYEFICKHFLAVCSNDAIGYNTKVTAKIQEEQFFCKGLKIKEKNYLEIYTYEKWNDKIIPSFQVDDEFYPTSLLIEEGITQPPKYLSESNLLTLMDKFSIGTDATMHEHIENIQKRNYVIKNSKSLFIPTNLGIALVQSYKKFKDIGIDLTDPSLRAKMEKDMSLVASGVKQKNEIIRNYIDIMKYIYQEIYNRIDVLDKNIHYYLNNPDQLSYT,not soluble
12,MKLQKQLLEAVEHKQLRPLDVQFALTVAGDEHPAVTLAAALLSHDAGEGHVCLPLSRLENNEASNPLLATCVSEIGELQNWEECLLASQAVSRGDEPTPMILCGDRLYLNRMWCNERTVARFFNEVNHTIEVDEALLAQTLDKLFPVSDEINWQKVAAAVALTRRISVISGGPGTGKTTTVAKLLAALIQMADGERCRIRLAAPTGKAAARLTESLGKALRQLPLTDEQKKRIPEDASTLHRLLGAQPGSQRLRHHAGNPLHLDVLVVDEASMIDLPMMSRLIDALPDHARVIFLGDRDQLASVEAGAVLGDICAYANAGFTAERARQLSRLTGTHVPAGTGTEAASLRDSLCLLQKSYRFGSDSGIGQLAAAINRGDKTAVKTVFQQDFTDIEKRLLQSGEDYIAMLEEALAGYGRYLDLLQARAEPDLIIQAFNEYQLLCALREGPFGVAGLNERIEQFMQQKRKIHRHPHSRWYEGRPVMIARNDSALGLFNGDIGIALDRGQGTRVWFAMPDGNIKSVQPSRLPEHETTWAMTVHKSQGSEFDHAALILPSQRTPVVTRELVYTAVTRARRRLSLYADERILSAAIATRTERRSGLAALFSSRE,not soluble
13,MKPMTQEPSTLYAKLLGETASITWTELQPFFAKGALLWVELPLDLIEVAEAVAENDAARVSAWLADGQVGKVSETKALELVETDPQLWAVVVAPWVLIQNRANV,not soluble
